The values that follow come from patent CN111606996A.

The target of the test is 4D5 CAR on NK92-4D5-Canada cells. As to the kind of experiment: flow cytometry on NK92-4D5-Canada cells, 2μg 5D1 + BV421 goat anti-mouse.

B1: 靶向4D5的鼠源单克隆抗体5D1 (antibody, V domains shown)
VH: QVQLEQSGAEFVRPGALVRLSCKASGFNIKDYYIHWVKQRPEQGLEWIGWIYPENDDTIYDPKFQGKASLTADTSSNTAYLQLSSLTSEDSAVYFCVRSGSDSSFDYWGQGTTLTVSS
VL: DIVMTQSTASLAVSLGQRATISCRASESVDSYDNSFMHWFQQKPGQPPKLLIYLASNLESGVPARFSGSGSRTDFTLTIDPVEADDAATYYCQQNNEDPFTFGSGTKLEIKR
For the molecule B1, the 阳性细胞数在总细胞中占比 came out at 60.2%.
